Source: the supplement of paper PMC7877785
± gives the uncertainty stated by the source.

Experiment: self-splicing fitness, log relative to wild type (ln ratio); higher = more splicing; Tetrahymena group I intron in knt gene, E. coli kanamycin selection, DiMSum; sequences stand for … in CUCUCU…GGAGGGAAAAGUUAUCAGGCAUGCACCUGGUAGCUAGUCUUUAAACCAAUAGAUUGCAUCGGUUUAAAAGGCAAGACCGUCAAAUUGCGGGAAAGGGGUCAACAGCCGUUCAGUACCAAGUCUCAGGGGAAACUUUGAGAUGGCCUUGCAAAGGGUAUGGUAAUAAGCUGACGGACAUGGUCCUAACCACGCAGCCAAGUCCUAAGUCAACAGAUCUUCUGUUGAUAUGGAUGCAGUUCACAGACUAAAUGUCGGUCGGGGAAGAUGUAUUCUUCUCAUAAGAUAUAGUCGGACCUCUCCUUAAUGGGAGCUAGCGGAUGAAGUGAUGCAACACUGGAGCCGCUGGGAACUAAUUUGUAUGCGAAAGUAUAUUGAUUAGUUUUGGAGUACUCGUGGUCG
Procedure, shortened: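 Fitness was computed with DiMSum as the error-weighted combination of replicate fold changes, kanamycin versus none, each normalised to wild type. The library randomised all eight intron nucleotides of the P1ex region, with the intron placed in the knt kanamycin-resistance gene on pET-22b(+) in E. coli BL21(DE3). Six replicate transformations were grown overnight at 37°C or 30°C on LB agar with or without 25 μg/mL kanamycin, plus 100 μg/mL carbenicillin, 50 μM IPTG and 0.2% rhamnose. Pooled colonies were amplicon-sequenced on an Illumina HiSeq 2500.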

Sequence | self-splicing fitness (ln) (30 °C) | self-splicing fitness (ln) (37 °C)
UGUAAGCAAUAUUACGCGCA | -0.603 ± 0.14 | -0.167 ± 0.17
UGUAAGCAAUAUUACGCGCC | -1.18 ± 0.1 | -0.53 ± 0.13
UGUAAGCAAUAUUACGCGUC | -3.31 ± 0.25 | -2.65 ± 0.32
UGUAAGCAAUAUUACGGCAG | -0.191 ± 0.091 | 0.0264 ± 0.11
UGUAAGCAAUAUUACGGCGC | -1.87 ± 0.18 | -1.43 ± 0.25
UGUAAGCAAUAUUACGGCUA | 0.0076 ± 0.11 | 0.536 ± 0.13
UGUAAGCAAUAUUACGGGCG | 0.00753 ± 0.092 | 0.237 ± 0.11
UGUAAGCAAUAUUACGGGCU | -1.73 ± 0.17 | -0.63 ± 0.16
UGUAAGCAAUAUUACGUAAG | -1.86 ± 0.15 | -1.84 ± 0.11
UGUAAGCAAUAUUACGUCCG | -0.161 ± 0.12 | 0.473 ± 0.12
UGUAAGCAAUAUUACGUGUC | -3.77 ± 0.2 | -2.01 ± 0.17
UGUAAGCAAUAUUACGUGUG | -1.04 ± 0.085 | -0.237 ± 0.095
UGUAAGCAAUAUUACGUGUU | -3.3 ± 0.15 | -0.96 ± 0.12
UGUAAGCAAUAUUACGUUUC | -3.11 ± 0.22 | -3.02 ± 0.43
UGUAAGCAAUAUUACGUUUU | -4.1 ± 0.18 | -1.14 ± 0.096
UGUCAGCAAUAUUACGAAUG | 0.0484 ± 0.12 | 0.565 ± 0.12
UGUCAGCAAUAUUACGACCA | -0.0909 ± 0.084 | 0.138 ± 0.12
UGUCAGCAAUAUUACGACGA | -0.0655 ± 0.12 | -1.08 ± 0.12
UGUCAGCAAUAUUACGAGCA | -0.272 ± 0.12 | -0.347 ± 0.13
UGUCAGCAAUAUUACGAUGC | -2.28 ± 0.42 | –
UGUCAGCAAUAUUACGCACU | -1.07 ± 0.087 | -0.0217 ± 0.12
UGUCAGCAAUAUUACGCCGU | -1.42 ± 0.13 | -1.12 ± 0.15
UGUCAGCAAUAUUACGGAAC | -3.82 ± 0.2 | -2.23 ± 0.3
UGUCAGCAAUAUUACGGCAC | -2.42 ± 0.35 | –

Sequence | self-splicing fitness (ln) (30 °C) | self-splicing fitness (ln) (37 °C)
UGUCAGCAAUAUUACGGGCA | -2.75 ± 0.21 | -1.78 ± 0.27
UGUCAGCAAUAUUACGGGCG | -1.71 ± 0.093 | -1.26 ± 0.12
UGUCAGCAAUAUUACGGGUU | -2.31 ± 0.1 | -1.07 ± 0.11
UGUCAGCAAUAUUACGGUCG | -0.443 ± 0.068 | 0.559 ± 0.11
UGUCAGCAAUAUUACGGUUU | -1.01 ± 0.061 | -0.547 ± 0.086
UGUCAGCAAUAUUACGUAUG | -0.239 ± 0.063 | 0.657 ± 0.086
UGUCAGCAAUAUUACGUAUU | -1.77 ± 0.071 | -0.932 ± 0.081
UGUCAGCAAUAUUACGUCAG | -0.398 ± 0.09 | -0.464 ± 0.098
UGUCAGCAAUAUUACGUCUC | -2.3 ± 0.15 | -1.86 ± 0.22
UGUCAGCAAUAUUACGUGCA | -0.626 ± 0.09 | -0.232 ± 0.1
UGUCAGCAAUAUUACGUUCG | 0.194 ± 0.073 | 0.709 ± 0.1
UGUGAGCAAUAUUACGAAGG | -3.98 ± 0.33 | -2.19 ± 0.3
UGUGAGCAAUAUUACGACAA | -1.97 ± 0.14 | -1.68 ± 0.14
UGUGAGCAAUAUUACGACGC | -2.98 ± 0.33 | -2.67 ± 0.38
UGUGAGCAAUAUUACGACUG | -1.04 ± 0.18 | -0.343 ± 0.29
UGUGAGCAAUAUUACGAUGG | -2.74 ± 0.2 | -2.27 ± 0.19
UGUGAGCAAUAUUACGCCAA | -1.67 ± 0.5 | -0.355 ± 0.39
UGUGAGCAAUAUUACGCCGG | -3.85 ± 0.25 | -1.98 ± 0.33
UGUGAGCAAUAUUACGCCUU | -2.28 ± 0.4 | –
UGUGAGCAAUAUUACGCUAG | -3.43 ± 0.32 | -1.59 ± 0.2
UGUGAGCAAUAUUACGCUGA | -2.24 ± 0.46 | –
UGUGAGCAAUAUUACGGAAA | -2.62 ± 0.38 | -2.61 ± 0.31
UGUGAGCAAUAUUACGGAGG | -3.33 ± 0.29 | -2.11 ± 0.34
UGUGAGCAAUAUUACGGAUA | -1.65 ± 0.35 | -1.64 ± 0.34

Sequence | self-splicing fitness (ln) (30 °C) | self-splicing fitness (ln) (37 °C)
UGUGAGCAAUAUUACGGAUG | -3.1 ± 0.17 | -1.52 ± 0.23
UGUGAGCAAUAUUACGGCAA | -1.83 ± 0.23 | -1.27 ± 0.25
UGUGAGCAAUAUUACGGCGA | -1.37 ± 0.14 | -1.05 ± 0.15
UGUGAGCAAUAUUACGGUGG | -2.64 ± 0.19 | -3.01 ± 0.35
UGUGAGCAAUAUUACGUAAA | -2.31 ± 0.15 | -1.31 ± 0.21
UGUGAGCAAUAUUACGUAAG | -1.7 ± 0.15 | -0.85 ± 0.21
UGUGAGCAAUAUUACGUAUC | -3.75 ± 0.37 | -2.3 ± 0.32
UGUGAGCAAUAUUACGUCUA | -1.51 ± 0.16 | -1.36 ± 0.15
UGUGAGCAAUAUUACGUGAG | -1.67 ± 0.14 | -1.52 ± 0.18
UGUUAGCAAUAUUACGAACC | -0.427 ± 0.21 | 0.133 ± 0.25
UGUUAGCAAUAUUACGAGCG | 0.176 ± 0.095 | -0.175 ± 0.12
UGUUAGCAAUAUUACGCAAU | -4.18 ± 0.42 | -2.67 ± 0.27
UGUUAGCAAUAUUACGCAUA | -1.72 ± 0.21 | -0.397 ± 0.16
UGUUAGCAAUAUUACGCGCG | -1.36 ± 0.19 | -0.771 ± 0.21
UGUUAGCAAUAUUACGGACA | -1.59 ± 0.23 | -0.73 ± 0.2
UGUUAGCAAUAUUACGGCAC | -1.58 ± 0.47 | -1.51 ± 0.43
UGUUAGCAAUAUUACGGGUG | -0.781 ± 0.071 | -0.441 ± 0.086
UGUUAGCAAUAUUACGGUAG | -0.65 ± 0.22 | -0.35 ± 0.19
UGUUAGCAAUAUUACGGUCA | 0.281 ± 0.096 | 0.169 ± 0.11
UGUUAGCAAUAUUACGGUGC | -3.76 ± 0.43 | -2.88 ± 0.32
UGUUAGCAAUAUUACGUAAA | -0.887 ± 0.14 | 0.19 ± 0.21
UGUUAGCAAUAUUACGUACU | 0.199 ± 0.2 | 0.344 ± 0.18
UGUUAGCAAUAUUACGUAUU | – | -2.12 ± 0.3
UGUUAGCAAUAUUACGUCUC | -4.05 ± 0.42 | -2.07 ± 0.31

Sequence | self-splicing fitness (ln) (30 °C) | self-splicing fitness (ln) (37 °C)
UGUUAGCAAUAUUACGUGGU | -4.24 ± 0.19 | -2.76 ± 0.14
UGUUAGCAAUAUUACGUGUG | -0.767 ± 0.12 | -0.724 ± 0.13
UGUUAGCAAUAUUACGUUAG | -0.971 ± 0.12 | -1.26 ± 0.12
UGUUAGCAAUAUUACGUUGA | -1.59 ± 0.21 | -0.731 ± 0.19
UGUUAGCAAUAUUACGUUUU | -3.9 ± 0.33 | -2.19 ± 0.24
UUAAAGCAAUAUUACGACAU | -0.271 ± 0.012 | 0.189 ± 0.032
UUAAAGCAAUAUUACGACCA | -0.0875 ± 0.22 | 0.312 ± 0.25
UUAAAGCAAUAUUACGACCC | -0.686 ± 0.28 | -0.355 ± 0.29
UUAAAGCAAUAUUACGAGCU | -0.888 ± 0.073 | -0.532 ± 0.1
UUAAAGCAAUAUUACGAUUA | 0.6 ± 0.089 | 0.448 ± 0.097
UUAAAGCAAUAUUACGAUUG | -2.03 ± 0.11 | -0.734 ± 0.11
UUAAAGCAAUAUUACGCACU | -0.0158 ± 0.068 | 0.681 ± 0.095
UUAAAGCAAUAUUACGCCUC | -2.29 ± 0.19 | -1.43 ± 0.24
UUAAAGCAAUAUUACGGAAA | -0.926 ± 0.092 | -1.29 ± 0.12
UUAAAGCAAUAUUACGGACC | -2.27 ± 0.18 | 0.778 ± 0.16
UUAAAGCAAUAUUACGGAGU | -3.35 ± 0.21 | -1.68 ± 0.19
UUAAAGCAAUAUUACGGCGA | 0.464 ± 0.17 | 0.659 ± 0.21
UUAAAGCAAUAUUACGGCUG | 0.262 ± 0.083 | 0.525 ± 0.12
UUAAAGCAAUAUUACGGGGG | -1.83 ± 0.13 | -2.16 ± 0.2
UUAAAGCAAUAUUACGUAUA | -1.26 ± 0.12 | -0.271 ± 0.14
UUAAAGCAAUAUUACGUCAG | -0.815 ± 0.065 | 0.0256 ± 0.093
UUAAAGCAAUAUUACGUCCC | -1.51 ± 0.11 | -0.906 ± 0.14
UUAAAGCAAUAUUACGUGUC | -1.09 ± 0.14 | -1.42 ± 0.16
UUAAAGCAAUAUUACGUUAC | -3.66 ± 0.19 | -0.9 ± 0.2
